This note sets out measurements from the supplement of paper PMC9112550, “Optimization of the antimicrobial peptide Bac7 by deep mutational scanning” (BMC Biology, 2022).

The subject of this data set is Escherichia coli TOP10. In words: shrunken log2 fold change of peptide-encoding DNA abundance (4.5 h post-induction vs induction); higher = less antimicrobial activity (less host growth inhibition). The note with it: time post-induction: 4.5 h; library: site-saturation at positions 5, 18, 19, 20.
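Note: peptides expressed intracellularly from a pBAD plasmid library in pooled LB shake-flask culture, induced with 0.3% L-arabinose, DNA abundance read by NGS, three biological replicates, DESeq2 with apeglm shrinkage.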

Consider RRIRYRPPRLPRPRPRPQQDPRP, for which the “shrunken log2 fold change” value was -0.0899.

As for RRIRSRPPRLPRPRPRPEGTPRP, the “shrunken log2 fold change” value stood at 0.123. The result for RRIRLRPPRLPRPRPRPRDRPRP reads 3.43; that for RRIRCRPPRLPRPRPRPSPEPRP, 0.3; that for RRIRSRPPRLPRPRPRPPYYPRP, -0.174.

With RRIRHRPPRLPRPRPRPQFEPRP, the “shrunken log2 fold change” value was -0.0276. With RRIRARPPRLPRPRPRPTFNPRP the figure was 0.0685; with RRIRIRPPRLPRPRPRPTTEPRP, 0.086; with RRIRYRPPRLPRPRPRPWRAPRP, -0.142. With RRIRVRPPRLPRPRPRPDMKPRP the figure was 0.0218. With RRIRNRPPRLPRPRPRPRANPRP the figure was 0.0572; with RRIRGRPPRLPRPRPRPQKDPRP, 0.346.

Turning to RRIRPRPPRLPRPRPRPGIKPRP, the “shrunken log2 fold change” value is -0.0194.

Turning to RRIRLRPPRLPRPRPRPFEDPRP, the “shrunken log2 fold change” value is -0.193. The result for RRIRNRPPRLPRPRPRPIDKPRP reads -0.0756; that for RRIRFRPPRLPRPRPRPQCQPRP, -0.0517; that for RRIRERPPRLPRPRPRPEYHPRP, -0.242. Take RRIRIRPPRLPRPRPRPPCGPRP: the “shrunken log2 fold change” value was -0.239. The result for RRIRCRPPRLPRPRPRPIFYPRP reads -0.32; that for RRIRRRPPRLPRPRPRPCEKPRP, -0.0914; that for RRIRPRPPRLPRPRPRPQCHPRP, -0.457. The result for RRIRLRPPRLPRPRPRPMGYPRP reads -0.126; that for RRIRGRPPRLPRPRPRPWFCPRP, -0.444; that for RRIRGRPPRLPRPRPRPGCRPRP, 1.16. The result for RRIRDRPPRLPRPRPRPWNHPRP reads -0.00185; that for RRIRDRPPRLPRPRPRPEKNPRP, 0.489; that for RRIRARPPRLPRPRPRPNCTPRP, 0.172.

As for RRIRERPPRLPRPRPRPEYYPRP, the “shrunken log2 fold change” value is -0.00813. The result for RRIRGRPPRLPRPRPRPANSPRP reads 0.186; that for RRIRPRPPRLPRPRPRPVMAPRP, -0.128. The result for RRIRIRPPRLPRPRPRPSTAPRP reads -0.263; that for RRIRQRPPRLPRPRPRPMQSPRP, 0.108; that for RRIRCRPPRLPRPRPRPGSAPRP, 0.148. With RRIRARPPRLPRPRPRPMHSPRP the figure was -0.106. With RRIRDRPPRLPRPRPRPNSWPRP, the “shrunken log2 fold change” value is -0.12.

As for RRIRLRPPRLPRPRPRPLCHPRP, the “shrunken log2 fold change” value was -0.253. The result for RRIRARPPRLPRPRPRPKTEPRP reads 0.38. With RRIRSRPPRLPRPRPRPMFTPRP the figure was -0.374. The result for RRIRSRPPRLPRPRPRPHNQPRP reads -0.271. Regarding RRIRYRPPRLPRPRPRPHSMPRP, the “shrunken log2 fold change” value is -0.0542. On to RRIRPRPPRLPRPRPRPIALPRP, for which the “shrunken log2 fold change” value was -0.0697. With RRIRMRPPRLPRPRPRPAKAPRP the figure was 0.0749; with RRIRRRPPRLPRPRPRPITMPRP, -0.0568; with RRIRVRPPRLPRPRPRPNCGPRP, 0.0742.

RRIRMRPPRLPRPRPRPHGAPRP: the “shrunken log2 fold change” value worked out at 0.0098.

RRIRARPPRLPRPRPRPFPKPRP: the “shrunken log2 fold change” value was 0.178. With RRIRWRPPRLPRPRPRPFHYPRP the figure was -2.18; with RRIRMRPPRLPRPRPRPEAIPRP, 2.54. The result for RRIRPRPPRLPRPRPRPTDCPRP reads 0.165; that for RRIRYRPPRLPRPRPRPLSWPRP, -0.0279; that for RRIRRRPPRLPRPRPRPFHVPRP, -0.00804. With RRIRWRPPRLPRPRPRPSAHPRP the figure was 0.062; with RRIRGRPPRLPRPRPRPWLQPRP, 0.201. With RRIRHRPPRLPRPRPRPDHLPRP, the “shrunken log2 fold change” value was -0.0237. As for RRIRFRPPRLPRPRPRPKGPPRP, the “shrunken log2 fold change” value turned out to be 0.0269. For RRIRYRPPRLPRPRPRPMVFPRP, the “shrunken log2 fold change” value is -0.00776. The result for RRIRRRPPRLPRPRPRPEEIPRP reads -0.0243; that for RRIRCRPPRLPRPRPRPGQLPRP, -0.00796. The result for RRIRHRPPRLPRPRPRPLMCPRP reads 0.0994; that for RRIRFRPPRLPRPRPRPNFYPRP, -0.212.

Turning to RRIRNRPPRLPRPRPRPAKEPRP, the “shrunken log2 fold change” value was determined as 0.0446. On to RRIRQRPPRLPRPRPRPIHHPRP, for which the “shrunken log2 fold change” value was -0.167. The result for RRIRVRPPRLPRPRPRPWLIPRP reads -0.277; that for RRIRIRPPRLPRPRPRPKNGPRP, -0.202. Consider RRIRRRPPRLPRPRPRPQPLPRP, for which the “shrunken log2 fold change” value was determined as 0.509.

For the sequence RRIRQRPPRLPRPRPRPSTLPRP, the “shrunken log2 fold change” value was -0.319. As for RRIRHRPPRLPRPRPRPNVQPRP, the “shrunken log2 fold change” value was -1.87. With RRIRWRPPRLPRPRPRPGGKPRP the figure was 0.227; with RRIRSRPPRLPRPRPRPIATPRP, 0.344. With RRIRPRPPRLPRPRPRPVIRPRP the figure was -0.074; with RRIRSRPPRLPRPRPRPVTKPRP, -0.00403; with RRIRQRPPRLPRPRPRPIPNPRP, -0.0226. The result for RRIRERPPRLPRPRPRPDAKPRP reads 0.0113.

As to RRIRYRPPRLPRPRPRPNVNPRP, the “shrunken log2 fold change” value was -1.2.

Turning to RRIRGRPPRLPRPRPRPKFHPRP, the “shrunken log2 fold change” value stood at 0.199.

Take RRIRERPPRLPRPRPRPLVLPRP: the “shrunken log2 fold change” value is -0.333.

With RRIRYRPPRLPRPRPRPFRVPRP, the “shrunken log2 fold change” value is -0.0371. The result for RRIRFRPPRLPRPRPRPVTTPRP reads 0.173. In the case of RRIRDRPPRLPRPRPRPFYFPRP, the “shrunken log2 fold change” value was -0.262. With RRIRGRPPRLPRPRPRPQMDPRP the figure was 0.291; with RRIRIRPPRLPRPRPRPFGKPRP, -0.0569; with RRIRQRPPRLPRPRPRPHHMPRP, -0.256. The result for RRIRIRPPRLPRPRPRPTASPRP reads 0.132; that for RRIRFRPPRLPRPRPRPGSGPRP, 0.161.

With RRIRGRPPRLPRPRPRPPTAPRP, the “shrunken log2 fold change” value is 1.01. Take RRIRKRPPRLPRPRPRPADSPRP: the “shrunken log2 fold change” value is 0.00593.

Regarding RRIRERPPRLPRPRPRPQNQPRP, the “shrunken log2 fold change” value is -0.612. In the case of RRIRHRPPRLPRPRPRPCTQPRP, the “shrunken log2 fold change” value was -0.367.

For the sequence RRIRERPPRLPRPRPRPCYWPRP, the “shrunken log2 fold change” value is -0.361. With RRIRLRPPRLPRPRPRPKHMPRP the figure was -0.0682; with RRIRMRPPRLPRPRPRPGTPPRP, 1.02.

Take RRIRTRPPRLPRPRPRPINHPRP: the “shrunken log2 fold change” value is -0.718. With RRIRIRPPRLPRPRPRPAMDPRP the figure was -0.218. The result for RRIRVRPPRLPRPRPRPYCTPRP reads -0.284. The result for RRIRCRPPRLPRPRPRPCYDPRP reads -0.316; that for RRIRMRPPRLPRPRPRPKMIPRP, -0.0167; that for RRIRYRPPRLPRPRPRPMFSPRP, -1.07. Consider RRIRQRPPRLPRPRPRPGTVPRP, for which the “shrunken log2 fold change” value was -0.00591. The result for RRIRERPPRLPRPRPRPDQVPRP reads -0.148. The result for RRIRVRPPRLPRPRPRPPTLPRP reads 0.252; that for RRIRWRPPRLPRPRPRPRYYPRP, -0.0581. The result for RRIRIRPPRLPRPRPRPNCDPRP reads -0.486; that for RRIRPRPPRLPRPRPRPPFFPRP, 0.415; that for RRIRSRPPRLPRPRPRPNDYPRP, -1.18. Regarding RRIRHRPPRLPRPRPRPRIRPRP, the “shrunken log2 fold change” value was -0.00948.

Take RRIRLRPPRLPRPRPRPQVNPRP: the “shrunken log2 fold change” value is -0.141. With RRIRYRPPRLPRPRPRPPCKPRP the figure was 0.0994.

Regarding RRIRQRPPRLPRPRPRPPTAPRP, the “shrunken log2 fold change” value came out at 0.504. The result for RRIRLRPPRLPRPRPRPVTNPRP reads -0.0302; that for RRIRQRPPRLPRPRPRPITPPRP, -0.0347; that for RRIRERPPRLPRPRPRPIDIPRP, -0.01. With RRIRRRPPRLPRPRPRPFPKPRP the figure was 0.0876; with RRIRWRPPRLPRPRPRPPRWPRP, 0.591; with RRIRHRPPRLPRPRPRPFHDPRP, -0.152.

As to RRIRFRPPRLPRPRPRPTGCPRP, the “shrunken log2 fold change” value was determined as 0.125. Take RRIRKRPPRLPRPRPRPAHDPRP: the “shrunken log2 fold change” value turned out to be 0.536. With RRIRWRPPRLPRPRPRPAFAPRP the figure was 1.23; with RRIRRRPPRLPRPRPRPPSWPRP, 0.295; with RRIRKRPPRLPRPRPRPKEEPRP, 0.0277.

Consider RRIRARPPRLPRPRPRPTMVPRP, for which the “shrunken log2 fold change” value was -0.0882. Consider RRIRARPPRLPRPRPRPCECPRP, for which the “shrunken log2 fold change” value stood at 0.633. With RRIRPRPPRLPRPRPRPCTCPRP the figure was -0.049; with RRIRWRPPRLPRPRPRPETNPRP, 0.187. With RRIRRRPPRLPRPRPRPNAVPRP the figure was 0.23; with RRIRERPPRLPRPRPRPCYYPRP, -0.312.
